Data reported in patent CN116333149A (UNIV HENAN URBAN CONSTRUCTION, dated 2023).

Molecular target: PCSK9抗原 (前蛋白转化酶枯草溶菌素9, Proprotein convertase subtilisin/kexin type 9)
Test: SPR, Biacore T200, PCSK9 coupled to CM5 chip (~790 RU), VHH as analyte 218-13.5 nM

B1: PCSK9单域抗体VHHH12 (VHH)
VHH: QVQLQESGGGLVQAGGSLRLSCAASGRTFSDYAVGWFRQAPGKEREFVAGIGWSGGQTTYADSVKGRFTISRDNAKDTVYLQMNSLKPEDTAVYVCAASFLVIPGTVKTRYDSWGQGTQVTVPA
notes: Alpaca VHH expressed from pMECS in E. coli HB2151 and purified on a Ni column; also called 抗PCSK9单域抗体VHHH12; PCSK9单域抗体蛋白VHHH12; not shown: C-terminal tags from the pMECS vector (HA tag, detected with anti-HA antibody)
Kd: 2.63 nM | koff: 0.000584 s⁻¹ | kon: 222000 M⁻¹ s⁻¹
